Data on 23 sequences can be found in the DeepSol protein solubility set.

The data set in a line: soluble on expression in E. coli; label from the status in PepcDB or PDB records.
“NMIKAAISRQREFLADASAVQFTRNDQGIAGALKKIGSNVQGSTLNTKASDEMSHMMFGQSKLSGFSGLFATHPPLDERIRRIEPNWDGSYAQHSHAQNTAFDNEQVSGFAVGGGSPASQSASPSEQLSETGQQLISQLPPELVDIAREPYSARFIAFALIFDGSDIQREMIKSYVPLASQSTLLPWLDYDLPLHLRFPLLELALPALKSLSEAQKISLCKVLRELSETDNQYSLAEWCVINLLEKQLLASFGFIKQHKSLKQLEESVFWLLRELAWVSHSQADKAQRAYHCALAHLGFPEVKLEPANSNWHLSRAALELLLQLKPNDRRMFVKACRLAIESDGEITVAEGEIYRVIACFLEVPEPPLTISG”: the “soluble on expression in E. coli” value is on record as “not soluble”. The entry for “NPIEMDYIRQIEDVNNRRMKALRPPHRKEVLKAREDDIKDRVQNWMSRENEPRLQRISSELLKEYDSTELVASLLQELVEANDEVE” is “not soluble”; for “NPNTCTESIGKVAPSYVDEPESEAPATAENTQPDVIIDWQAALKQSANKEDLAKDMLRMLIDFIPEVEEVVDHALEQDDYSREELIHVIHKLHGSSSYCGVPRLKSLCATLEHALRSGASIEEIEPEMFELQDEMIKVTTTAKLYLEQ” it is “not soluble”. As for “NRYAKLCMEREINKRTVLMQEMELENYKKINQANDKYMELLHNSNHYMRTVYGLLEQDNKDEAINIMDSVLTEYEEGELIEYSTNSILNTILSEYYDKSKTNHIEFNIFVEPGFNIECVESMDLVAMVSNLISNAYEAALKSDEKKIKVQMYMQNDGSFIIIKIENSFSGEIVSQGDRLLTTKKDGNIHGVGIESVEKVAEKYDGWVSTSWGNKSFRTMLVLNNSYVV”, the entry is “not soluble”; as for “NSVLFPCKYASSGCEITLPHTEKAEHEELCEFRPYSCPCPGASCKWQGSLDAVMPHLMHQHKSITTLQGEDIVFLATDINLPGAVDWVMMQSCFGFHFMLVLEKQEKYDGHQQFFAIVQLIGTRKQAENFAYRLELNGHRRRLTWEATPRSIHEGIATAIMNSDCLVFDTSIAQLFAENGNLGINVTISMC”, “soluble”; as for “NTDKHIYLEEHISPESQPMLSTYFRSMGKPRSIKENVLTVPQDASPETLALYYFARIYLERYEGVPLPDDMPDLIEFGRKHNMPWVVAEAKLNKAIRMIELDDDWHAELLLHDVIGESRDIGYLALQGRAYRWMGNLEIARNQIHNGLKHYRTAYELLENTVFEIQVAMTLNNIGTVYLDSSDWNRASNYLKQALDVYESSEYEYDNS”, “not soluble”.

“NTPYLRPEMFPELAILQQNWQVIRDEGLHLQQLEQIKAADKYNDAGFNSFFKTGWKRFYLKWYEDAHPSASQLCPQTTALLRDIPSVKAAMFATLPDGSRLPRHRDPYAGSLRFHLGLATPNDDRCFIEVDGQRYSWRDGEGVLFDETYIHYAENTSGENRLILFCDIERPMRYRWAQKVNHWLGRHLMSAASAPN”: the “soluble on expression in E. coli” value was “not soluble”. The entry for “NVPVGMSIGVYDYELSDYAERMDAISGGAIRSSFARNGGIGFDIGASLQIGYMIKFTDSIGLSILAEAGYSHDTYSYISRLDKNNSYSYSFESLQLGVIPKFNIKNFAIGIGGGVKIPLAGNIHTKTSLFESNTKLTSDDIKRLYEKALMPYIKVTFDYSIFFTQKTAFNIGLYLGYDFGLEPNIYTVDGAIDGNRLVVDEVSYSSFDVGLQVGLKFGPSTK” is “not soluble”. The entry for “PFMFRPRKQVFQTQGAAVSSMAQTLLPNDLASKAMGSAFTALLDANEDAQKAMKIIKTLSSLSDAWENVKETLNNPEFWKQLLSRCVQLIAGMTIAVMHPDPLTLLCLGTLTAAEITSQTSLCEEIAAKFKTIFITPPPRFPTISLFQQQSPLKQVNDIFSLAKNLDWAVKTVEKVVDWFGTWIVQEEKEQTLDQLLQRFPEHAKRISDLRNGMAAYVECKESFDFFEKLYNQAVKEKRTGIAAVCEKFRQKHDHATARCEPVVIVLRGDAGQGKSLSSQVIAQAVSKTIFGRQSVYSLPPDSDFFDGYENQFAAIMDDLGQNPDGSDFTTFCQMVSTTNFLPNMASLERKGTPFTSQLVVATTNLPEFRPVTIAHYPAVERRITFDYSVSAGPVCSKTEAGYKVLDVERAFRPTGEAPLPCFQNNCLFLEKAGLQFRDNRTKEIISLVDVIERAVARIERKKKVLTTVQTLVAQ” is “not soluble”; for “PHDFPHFDKERYARTTRKVIARMNQELASHEQIKGVLMIKEPWSIENGVLTPTLKIKRHVLEQKYHELGHNWPKDELVLWEEDL” it is “not soluble”.

In the case of “PIFEEQPINTIYPEESLEGKVSLNCRARASPFPVYKWRMNNGDVDLTSDRYSMVGGNLVINNPDKQKDAGIYYCLASNNYGMVRSTEATLSFGYLDPFPPEERPEVRVKEGKGMVLLCDPPYHFPDDLSYRWLLNEFPVFITMDKRRFVSQTNGNLYIANVEASDKGNYSCFVSSPSITKSVFSKFIPLIPIPERTTKPYPADIVVQFKDVYALMGQNVTLECFALGNPVPDIRWRKVLEPMPSTAEISTSGAVLKIFNIQLEDEGIYECEAENIRGKDKHQARIYVQAFPEWVEHINDTEVDIGSDLYWPCVATGKPIPTIRWLKNGYAYHKGELRLYDVTFENAGMYQCIAENTYGAIYANAELKILALAPTFEMNPMKKKILAAKGGRVIIECKPKAAPKPKFSWSKGTEWLVNSSRILIWEDGSLEINNITRNDGGIYTCFAENNRGKANSTGTLVITDPTRIILAPINADITVGENATMQCAASFDPALDLTFVWSFNGYVIDFNKENIHYQRNFMLDSNGELLIRNAQLKHAGRYTCTAQTIVDNSSASADLVVRGPPGPPGGLRIEDIRATSVALTWSRGSDNHSPISKYTIQTKTILSDDWKDAKTDPPIIEGNMEAARAVDLIPWMEYEFRVVATNTLGRGEPSIPSNRIKTDGAAPNVAPSDVGGGGGRNRELTITWAPLSREYHYGNNFGYIVAFKPFDGEEWKKVTVTNPDTGRYVHKDETMSPSTAFQVKVKAFNNKGDGPYSLVAVINSAQDAPSEAPTEVGVKVLSSSEISVHWEHVLEKIVESYQIRYWAAHDKEEAANRVQVTSQEYSARLENLLPDTQYFIEVGACNSAGCGPPSDMIEAFTKKAPPSQPPRIISSVRSGSRYIITWDHVVALSNESTVTGYKVLYRPDGQHDGKLYSTHKHSIEVPIPRDGEYVVEVRAHSDGGDGVVSQVKISGAPTLSPSLLGLLLPAFGILVYLEF”, the “soluble on expression in E. coli” value is reported as “soluble”.

“PLGVSAAGALDRASLRRANRLVGNASSAAAIESVNGGLTVEAVGDQVIAVTGAPTTLTIESPSWVGSDDDDGGARPGGKRTVPMAAPFALLDGELLTLGAPESGFRNYVAIRGGVDAPEVLGSRSADTMSGIGPAPLAIRQVLATGEQTASTAVGAPELQPDFPGAGVTVLDVVPGPRADWFDQEALDSLCNQEWLVTPQSNRVGMRLDGKPLERTREGELPSEGTMAGALQIPPAGLPVLFLADHPITGGYPVIGVVRDEHLDRAAQVPIGGRIRFRLVPDSADFTTTTTKTPEK”: the “soluble on expression in E. coli” value is on record as “not soluble”. The entry for “PRRTDADGEKMLAYLNTLYADKQAFELRADSLRKEVRQRLGIDTLLAQCVNSTPILSKIRKFDGYTVQNFALETLPGLYVCGSVYTPQSKGKHALIICPNGHFGGGRYREDQQQRMGTLARMGAVCVDYDLFGWGESILQVGSTAHRSSAAHTIQAMNGLLILDYMLASRKDIDTKRIGANGGSGGGTHTVLLTTLDDRFTASAPVVSLASHFDGGCPCESGMPIQLSAGGTCNAELAATFAPRPQLVVSDGGDWTASVPALEFPYLQRIYGFYDAKDNVTNVHLPKEKHDFGPNKRNAVYDFFAEVFD” is “not soluble”. As for “PRVVFIDEQSGEYAVDAQDGQSLMEVATQNGVPGIVAECGGSCVCATCRIEIEDAWVEIVGEANPDENDLLQSTGEPMTAGTRLSCQVFIDPSMDGLIVRVPLPA”, the entry is “soluble”. As for “PSSAVGSGSEGFIVRLPAALLFKEGGIEVENSDGFLFVKRMAEIVNRLPKDVHVEVRGHTDTLPLPAQAPQDKLELTAKRALSVSKLLVKEGIDPKRITTVGRGDQDPLTHARTPEAQESNRRVDIYLYPKE”, the entry is “soluble”. Turning to “PSVQVTDGQINGESVRFIAVVPDANNHYPRAAGGEVGLLEGWTLAKVVNETIAADADRPVKRPIVAVIDVPSQAYGRREEAFGIHQALAGAAGAYAKARLAGHPVIGLIVGKAMSGAFLAHGYQANRLIAFNDSGVLVHAMGKASAARITLRTVEALEKLAATIPPMAY”, the “soluble on expression in E. coli” value is on record as “not soluble”.

With “PTQSPSEFIAELARCAQPIAQANDLYASVMMAQAIVESGWGASTLSKAPNYNLFGIKGSYNGQSVYMDTWEYLNGKWLVKKEPFRKYPSYMESFQDNAHVLKTTSFQAGVYYYAGAWKSNTSSYRDATAWLTGRYATDPSYNAKLNNVITAYNL”, the “soluble on expression in E. coli” value was “not soluble”. As for “PVKPVAPGEQQKNWAHWGNTTHGDRFAALDQINKQNVNQLQVAWVAHTGDIPQSNGSGAEDQNTPLQIGDTLYVCTPYSKVLALDVDSGKEKWRYDSKSSSPNWQRCRGLGYYEDSQAQTAPAAGTQPAACSRRLFLPTIDARLIAIDADTGKLCESFGDRGIVDLSVGMGEVKAGYYQQTSTPLVAGNVVVVGGRVADNYSTGEPPGVVRAFDVHTGKLAWAWDPGNPALTGVPPEGQTYTRGTPNVWSAMSYDAKLNLIYLPTGNATPDFFGGERTALDDKYSSSIVAVDATTGQVRWHFQTTHHDLWDFDLPSQPLLYDLPDGKGGTTPVLVQTSKQGMIFMLNRETGEPVAKVEERPVPAGNVKGERYSPTQPYSVGMPMIGNQTLTESDMWGATPIDLLLCRIQFKEMRHQGVFTPPGEDRSLQFPGSLGGMNWGSVSLDPNNSLMFVNDMRLGLANYMVPRAKVAKDASGIEMGIVPMEGTPFGAMRERFLSPLGIPCQKPPFGTMSAVDLKTGKLVWQVPVGTVEDTGPLGIRMHMPIPIGMPTLGASLATQSGLLFFAGTQDFYLRAFDTANGKEIWKSRLPVGSQSGPMTYVSPKTGKQYIIINAGGARQSPDRGDYIIAYALPDHH”, the entry is “not soluble”; as for “PVTSISHEQLQQVHAEAGLTIALSTSVGDDLFYVDHVSSEPEYAYLAENRLRRSLLRTSAGWLLLADREQRDIWAYLNSRPVADADYIEQFLYALEALRATGVCAAPGVAVEHGDGVSVALRERGRTIATLGVVGVRETIIERRDELAKICLRHAEEWGFR”, “soluble”. “QAPEQRSIRDGILLLHELGALTDDTQADGSPQLTQIGKDLANIPVDPRMARMLVEANTLGCLHSVMVIVSALTIQDVRERPLEFQAQADQAHARFKDTT”: the “soluble on expression in E. coli” value is listed as “not soluble”.

Consider “QDLLLSYKGKLKNDSIEGEFRQGRFGTMMSLYRGLDAAKPYRPQTPVPPFPYDVTDVKILHKTGGFTIAGTLTAPKDANKTKGTVILISGSGLQDRDETIFGHKPFAVLADQLTRHGYAVLRCDDRGFGESAGDASQATTDTLAGDIESELAYLRQHYPRLTDKVFLIGHSEGGIIAPMVARRVGGIAGLVLVGAPSVKGAEILLSQNAAMDEFATGQPQSQAKRAALEELIRQATAPGDTSDIRTRIESYCRSNASVLFPQAMTDEMKEQGIKLMTEQLYTPWMRHFLTYDPAPLLDVTSGEGSHPLPPTMAIYGGRDKQVLHEVNMSKMKSLLGIETGNTTNKVVYLPEVNHIMQPAEFGTPDEYAFLNRTVDTELMEIVCSFLDSL”, for which the “soluble on expression in E. coli” value is given as “not soluble”.

Regarding “QETEDPACCSPIVPRNEWKALASECAQHLSLPLRYVVVSHTAGSSCNTPASCQQQARNVQHYHMKTLGWCDVGYNFLIGEDGLVYEGRGWNFTGAHSGHLWNPMSIGISFMGNYMDRVPTPQAIRAAQGLLACGVAQGALRSNYVLKGHRDVQRTLSPGNQLYHLIQNWPHYRSP”, the “soluble on expression in E. coli” value was “soluble”. The entry for “QFLSGQLSIKLWFDKVGHQLIVTILGAKDLPSREDGRPRNPYVKIYFLPDRSDKNKRRTKTVKKTLEPKWNQTFIYSPVHRREFRERMLEITLWDQARVREEESEFLGEILIELETALLDDEPHWYKLQ” is “soluble”.
